Two molecules from patent US20040018172A1 (US Dept. of Health and Human Services, published 2004) can be followed below.

In assay [1] the target is T1, ^125I-IFN-α2b binding site on Daudi and WISH cells (human).
T1 chain 1: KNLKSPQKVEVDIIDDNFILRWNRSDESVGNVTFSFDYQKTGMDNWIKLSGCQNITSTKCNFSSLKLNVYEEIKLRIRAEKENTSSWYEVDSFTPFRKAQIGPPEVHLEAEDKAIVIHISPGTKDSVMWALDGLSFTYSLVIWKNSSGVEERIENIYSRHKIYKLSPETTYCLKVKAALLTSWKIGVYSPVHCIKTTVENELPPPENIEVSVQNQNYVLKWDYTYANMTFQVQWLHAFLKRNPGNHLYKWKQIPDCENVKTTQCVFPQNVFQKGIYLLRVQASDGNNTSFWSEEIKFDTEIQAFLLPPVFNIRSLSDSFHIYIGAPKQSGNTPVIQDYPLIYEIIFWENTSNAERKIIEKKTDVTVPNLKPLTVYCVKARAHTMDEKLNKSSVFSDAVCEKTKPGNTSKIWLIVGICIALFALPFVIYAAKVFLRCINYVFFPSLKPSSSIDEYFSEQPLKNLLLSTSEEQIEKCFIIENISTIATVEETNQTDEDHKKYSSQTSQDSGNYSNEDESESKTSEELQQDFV
T1 chain 2: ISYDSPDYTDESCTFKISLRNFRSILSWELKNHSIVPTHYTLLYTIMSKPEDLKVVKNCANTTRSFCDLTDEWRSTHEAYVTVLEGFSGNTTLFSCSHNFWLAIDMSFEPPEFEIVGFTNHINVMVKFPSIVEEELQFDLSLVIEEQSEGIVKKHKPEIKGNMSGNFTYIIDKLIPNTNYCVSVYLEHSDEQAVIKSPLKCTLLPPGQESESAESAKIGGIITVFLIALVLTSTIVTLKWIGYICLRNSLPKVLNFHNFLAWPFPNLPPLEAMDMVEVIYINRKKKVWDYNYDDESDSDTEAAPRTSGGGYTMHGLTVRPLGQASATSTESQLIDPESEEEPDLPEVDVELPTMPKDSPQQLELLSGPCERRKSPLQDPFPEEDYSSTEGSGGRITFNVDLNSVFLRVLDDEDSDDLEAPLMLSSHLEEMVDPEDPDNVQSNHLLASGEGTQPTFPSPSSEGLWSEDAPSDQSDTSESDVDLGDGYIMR
The experiment in a line: displacement of ^125I-IFN-α2b from WISH cells (competitor: ^125I-IFN-α2b).

Assay [2] has as its target T1, ^125I-IFN-α2b binding site on Daudi and …. In words: displacement of ^125I-IFN-α2b from Daudi cells (competitor: ^125I-IFN-α2b).

B1: IFN-α21a (ligand, human, UniProt P01568 24-189, looked up)
chain: CDLPQTHSLGNRRALILLAQMGRISPFSCLKDRHDFGFPQEEFDGNQFQKAQAISVLHEMIQQTFNLFSTKDSSATWEQSLLEKFSTELNQQLNDLEACVIQEVGVEETPLMNVDSILAVKKYFQRITLYLTEKKYSPCAWEVVRAEIMRSFSLSKIFQERLRRKE
notes: mature; Recombinant, made in E. coli from pQE30/A21 and purified on Ni-NTA, so an amino-terminal hexa-histidine tag may be present; also called interferon-α21a; IFNA21
The term IC50 denotes the concentration needed to halve the response being measured. A lower IC50 goes with greater potency in that assay. Take B1: the IC50 in assay [1] is > 0.2 µg/mL; in assay [2], > 0.4 µg/mL.

B2: HY-2: IFN-α21a(1-95)/IFN-α2c(96-166) (ligand)
chain: CDLPQTHSLGNRRALILLAQMGRISPFSCLKDRHDFGFPQEEFDGNQFQKAQAISVLHEMIQQTFNLFSTKDSSATWEQSLLEKFSTELNQQLNDLEACVIQGVGVTETPLMKEDSILAVRKYFQRITLYLKEKKYSPCAWEVVRAEIMRSFSLSTNLQESLRSKE
notes: Expressed from pQE30 in E. coli and purified on Ni-NTA, so an amino-terminal hexa-histidine tag may be present; also called AF085804
For the molecule B2, the IC50 was > 0.2 µg/mL in assay [1] and > 0.4 µg/mL in assay [2].
